Data on 1 molecule can be found in patent US20090081786A1, “Peptide sequences for modulation of protein kinase C” (priority 2006, published 2009).

Bounds are passed on as bounds.

The target in this assay is δ-PKC in isolated rat hearts (rat), P09215. The experiment in a line: cell-based or functional assay.
Sequence of δ-PKC in isolated rat hearts (rat), P09215 (P09215 whole entry, stated change not applied): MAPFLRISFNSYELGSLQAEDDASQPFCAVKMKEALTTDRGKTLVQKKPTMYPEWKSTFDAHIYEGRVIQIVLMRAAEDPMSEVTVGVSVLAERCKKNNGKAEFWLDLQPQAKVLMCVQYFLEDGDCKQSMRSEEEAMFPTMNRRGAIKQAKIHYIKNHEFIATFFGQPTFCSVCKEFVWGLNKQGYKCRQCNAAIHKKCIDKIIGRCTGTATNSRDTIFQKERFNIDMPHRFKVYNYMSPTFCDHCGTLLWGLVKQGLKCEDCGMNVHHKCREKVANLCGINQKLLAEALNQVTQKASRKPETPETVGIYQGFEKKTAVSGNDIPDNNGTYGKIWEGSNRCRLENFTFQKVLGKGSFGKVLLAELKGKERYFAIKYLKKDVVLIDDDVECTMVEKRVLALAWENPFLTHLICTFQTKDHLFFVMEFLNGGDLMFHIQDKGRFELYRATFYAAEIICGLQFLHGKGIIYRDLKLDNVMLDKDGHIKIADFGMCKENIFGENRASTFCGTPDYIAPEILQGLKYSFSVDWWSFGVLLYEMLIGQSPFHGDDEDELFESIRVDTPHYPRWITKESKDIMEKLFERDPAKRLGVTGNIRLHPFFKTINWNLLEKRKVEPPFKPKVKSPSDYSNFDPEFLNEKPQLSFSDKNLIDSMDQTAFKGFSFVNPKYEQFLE

B1: annexin V-derived peptide pAnxV (annexin V residues 157-164) conjugated to TAT47-57 carrier peptide (peptide)
peptide: LQANRDPD
chain: YGKKRRQRRR
modifications: not checked
The molecule B1 displayed a creatine phosphokinase (CPK) release in the heart perfusate during reperfusion above 50 % reduction and an infarct size after ischemia/reperfusion in isolated rat hearts of 70 % reduction.
